Experiment: soluble on expression in E. coli; label from the status in PepcDB or PDB records

Sequence	soluble on expression in E. coli
MRNIAVILAGGSGQRLGENIPKQFLKIAGKKVIEHTITVFQNHSLIDEIVVVVHPDYIRDVEDISLRNSFNKLKKILLGGKERYHSSLAAINAYDEEVNLLFHDSVRPLVNERIINDCIRALLTYNAVDVAIPTTDTIIQVDDNNEIVKIPSRILLRNGQTPQAFKRSVIKAAYEKALLDPLFKTTDDCGVVLKYLPDESIYVVNGEQFNMKLTYKEDIFLLDKLFQLRSIRNQPTLLEKSEMEELQGKVVVVFGGTYGIGQDICEICREYKTSLYVYSRSTGVDVSNSQSVRRVLSEIFDKEGRIDWIVNTAGILDKQPLANMSYEAVHQSIDVNYLGNIIVAKESFFYLKESKGSLLFFTSSSYTRGRALYSLYSSSKAAIVNFVQALSEEWFEYGIRVNCINPERTKTPMRIQNFGNEPEDTLLEPKVVAIVSVNTLLSEMTGEVVDVKRLEHHHHHH	not soluble
MGSDKIHHHHHHMILCAGEALIDMLPRKTEAGEAAFAPYPGGSVFNTAVALSRLGTKTEFFSGLSTDLFGERLDSVLMANGVGSALAHRNDRPTTLAFVTLTDGHASYAFYDENTAGRMLTEADLPAIPETAKACFFGGISLAVEPCADAYAALIGRANDLGRVVMIDPNIRPGFIADEARFRARLDQMLAQTDIIKASDEDLRWLLGDMSLPELAEALRAKGPSVVLVTQGAAGVTGFYAGGEIHVDAEAVTVVDTVGAGDTFNAGVLAGLDDAGALDKAMIAKGLDAETLRGAMELGVRASAVTVTRAGANPPRRDELS	not soluble
MGDSILSQAEIDALLNGDSDTKDEPTPGIASDSDIRPYDPNTQRRVVRERLQALEIINERFARQFRMGLFNLLRRSPDITVGAIRIQPYHEFARNLPVPTNLNLIHLKPLRGTGLVVFSPSLVFIAVDNLFGGDGRFPTKVEGREFTHTEQRVINRMLKLALEGYSDAWKAINPLEVEYVRSEMQVKFTNITTSPNDIVVNTPFHVEIGNLTGEFNICLPFSMIEPLRELLVNPPLENSRHEDQNWRDNLVRQVQHSELELVANFADIPLRLSQILKLKPGDVLPIEKPDRIIAHVDGVPVLTSQYGTVNGQYALRVEHLINPILNSLNEEQPK	not soluble
MGSDKIHHHHHHMDDIPALMRSLQLKRKPLMVCSGGTTSRCAAEGHWTLDLRQSCRQIHFDPSTQHVEIGAGQTMESLLRELAKHGRSFPTGLSGLPGLGYILNGGISPLSRSQGLAIDQILEIKGVWGDGESFVLSKPEAACCSEDQLAWRGLCGAAPFLAVITDLKLQTHLLQPLRIWQSNLTFEQLLELIHQAESWPDSLSLQWIWGDEVHAYGVLLSADAAAVATFNQLQKTTLCTNVVEIDDVAGIHELPPFALPVVSNAAIGRCHSEVVALLGPAWGSGCQGVITALAELMAERPDPRCSLAVQQLGGVASRQRKDVSSLIHREAIWKPWITAAWPAGDSHIRALSLNWLEKVWATLEPYCAGVHLAQMHPHLPWHQRELKAAFGEWLPGLQELKARHDPNGILPSL	not soluble
MGSDKIHHHHHHMNFLVRNLVENLEEGDRVILDVTHSFRSIPLMASVVALYLKEAKDVNVSVVYGKYNKETKVTECEDLTPLTKATSWIYAVRLFKEYGYAKELADLIKKRNEEIYRRSQSSKKPKLLGSMSQKLQDLSSSIRLGSIVAIRKNLTNFFNFIDRNKARIREETEVFVPEIAALLDGIEKRYRVIHVKSENFELSEKELESEKELLDFYLQTGDLGMALRLAREYLINVYLMSGGEKSDFLDRNVRESVSISTFGYDTILQARNHVAHFGFNKLQLPSLKKIEDHLKVLVQTPPEQLLESARKTQRNRKRALLTPLGTTKGALYTVLKKISPDLLLVITSKQGKAILSEILEKAEFKGEFRVILLEDPFMGVSEIDRVVSEIKEHLSDVDEVIVNLTGGTTFLTYVIERAKNQIRYGRKVKTILAVDKRTYEEQKQNPFVVGEILELD	not soluble
GHHHHHHLEKCVFVTVGTTSFDDLIACVSAPDSLQKIESLGYNRLILQIGRGTVVPEPFSTESFTLDVYRYKDSLKEDIQKADLVISHAGAGSCLETLEKGKPLVVVINEKLMNNHQLELAKQLHKEGHLFYCTCSTLPGLLQSMDLSTLKCYPPGQPEKFSAFLDKVVGLQK	not soluble
MEDLIDGIIFAANYLGSTQLLSDKTPSKNVRMMQAQEAVSRIKMAQKLAKSRKKAPEGESQPMTEVDLFILTQRIKVLNADTQETMMDHPLRTISYIADIGNIVVLMARRRIPRSNSQENVEASHPSQDGKRQYKMICHVFESEDAQLIAQSIGQAFSVAYQEFLRANGINP	soluble
MKKTIVFKCGGSVIRELSEEFYQNLKELRASGWKLAIVHGGGPEITNMLKRLNIKTEFSGGQRKTTKPVLEVAEMVLSGSVNKFFVAELAKHGLRAAGISGKDGGLLEADYLDPETYGEVGEIKKVDASMVNALMENGIIPVIAPLSMTSDCKTLNVNADLAASAVAGALEADKLMFVTDVDGIMKEKQRLDVLTPKEIQMLIKQEVITGGMIPKVNSALSALSDQVSEVMIVNGKGSFFAEQTFQGTKIVKAKEAVS	not soluble
MGSDKIHHHHHHMRISYGVENLRSLTRTPEIELRPITILIGRNSAGKSTYLRSFALMRQSLEVKSSAPILWYGDYVDFGDFDAAVSNGDKDSDITFNFRVEDLDTRDVEDEIYYYNEYAYRSSRRKISYQAVSLSISLGEQLRRTVRRRIALEIPEDRISAVASFEKDGRECSDFQINGQRLSDLIPNVAVYFRASDIFDRPVLVRQVRKDGKSLRRVVGAASEIGSAISQRLRQQVDKRISEENLAIEARRILNHPRLDPTSLQQLRLRAGNRSFRKLYDRWLKDEASTTLAEIDHLCALNHALITVGRVSSVLKGFFRNTTYLGPARARSERYYRSQELEVSEISPDGQNLPMFLASLSTTEQGRFSDWVEEAFGFGVLVERKEGHVSIKLRQRTISVNVADTGYGVSQILPVLAQIWWATQIPRNYTRQMRHGLRPITMEQPELHLHPAHQAKLADVFQSAIERSNASGPEAVLLIETHSEALINRLGELIEYGKIAANDVQVVIFSARGEGEELNTEISTSTFDDNGALRDWPYGFFNY	not soluble
GHMASVTRAVFGELPSGGGTVEKFQLQSDLLRVDIISWGCTITALEVKDRQGRASDVVLGFAELEGYLQKQPYFGAVIGRVANRIAKGTFKVDGKEYHLAINKEPNSLHGGVRGFDKVLWTPRVLSNGVQFSRISPDGEEGYPGELKVWVTYTLDGGELIVNYRAQASQATPVNLTNHSYFNLAGQASPNINDHEVTIEADTYLPVDETLIPTGEVAPVQGTAFDLRKPVELGKHLQDFHLNGFDHNFCLKGSKEKHFCARVHHAASGRVLEVYTTQPGVQFYTGNFLDGTLKGKNGAVYPKHSGFCLETQNWPDAVNQPRFPPVLLRPGEEYDHTTWFKFSVA	soluble
MRILNVSLLVLASSLVAFVECGRDFYKILGVAKNANANQIKKAYRKLAKELHPDRNQDDEMANEKFQDLSSAYEVLSDKEKRAMYDRHGEEGVAKMGGGGGGGHDPFSSFFGDFFGGGGGHGGEEGTPKGADVTIDLFVTLEEVYNGHFVEIKRKKAVYKQTSGTRQCNCRHEMRTEQMGQGRFQMFQVKVCDECPNVKLVQENKVLEVEVEVGADNGHQQIFHGEGEPHIEGDPGDLKFKIRIQKHPR	not soluble
MKEQILEKLKTVKYPGFEKDIVSFNFVKDIKIQDDGVFIDIEIVSANPEVANEIRKNTIEALSSLALKNIELNIITPKIPEEKSNSRSGKNIAPQVKNFIMVSSGKGGVGKSTTTVNLAISMAKMGKRVGILDADIYGPNIPRMLGETKTQPEVVGQRLKPILTHGVYMMSMGVLIEEGQGLMWRGAMIMKAIEQLLADVIWPELDVLFLDMPPGTGDAQITSAQSIPIAAGVCVSTPQTVSLDDSKRALDMFNKLHIPIAGVIENMSGFLCPDNGKEYDIFGKGTAEDMAKAYKSEVLAQIPIEMIVREGGDEGKPVSFYHPESVSSKRYLMAAEKIWSFIEKINNEGGADNSAIQPVMNGKSACSHLEHHHHHH	soluble
MANRGGEYLYDELWKLCAGPLVDVPQAQERVYYFPQGHMEQLEASTQQVDLNTMKPLFVLPPKILCNVMNVSLQAEKDTDEVYAQITLIPVGTEVDEPMSPDPSPPELQRPKVHSFSKVLTASDTSTHGGFSVLRKHATECLPPLDMTQQTPTQELVAEDVHGYQWKFKHIFRGQPRRHLLTTGWSTFVTSKRLVAGDTFVFLRGENGELRVGVRRANLQQSSMPSSVISSHSMHLGVLATARHATQTKTMFIVYYKPRTSQFIISLNKYLEAMSNKFSVGMRFKMRFEGEDSPERRYSGTVIGVKDCSPHWKDSKWRCLEVHWDEPASISRPNKVSPWEIEPFVNSENVPKSVMLKNKRPRQVSEVSALDVGITASNLWSSVLTQPHEFAQSCITSQWSSPQQCHRDANEDAKKSDWLNNSYSVSNVAKDSTLNDQMVSPVEQKKPETTANYRLFGIDLMSSSLAVPEEKTAPMRPINISKPTMDSHSDPKSEISKVSEEKKQEPAEGSPKEVQSKQSSSTRSRTKVQMQGVPVGRAVDLNALKGYNELIDDIEKLFDIKGELRSRNQWEIVFTDDEGDMMLVGDDPWPEFCNMVKRIFIWSKEEVKKMTPGNQLRMLLREVETTLTTTSKTDNHSN	soluble
GHMAGGTKRLPRAVREQQMLDAAVDVFSDRGFHETSMDAIAAKAEISKPMLYLYYGSKDELFAACIQREGLRFVEALAPAGDPGLSPREQLRRALEGFLGFVGKHRKSWMVLYRQAMGQQAFVGSVQSSRDRLIELTAHLLESSTKDPEPGQDFELIAIALVGAGEAVADRVAGGEIEVDAAADLLESLAWRGLAGKKKPEGS	soluble
MSLTDQKPVPVFDGHNDVLLRLWRSGNTSPETLLIEGDTVGHIDLPRARKGGLAGGLCAIYVPSPSMEKDANGDFSTPTEADALKATLGMAALLFRAEKQSAGALKVCRTAADIRSAMAEGAFASVFHIEGAEAIGDDLDALHVLHEAGLRTLGPVWSRPNIFAYGVPFRFPSTPDIGPGLTDTGKRLVKTCNELKIMVDLSHMNEQGFWDIAKISDAPLVASHSNAYALCNHSRNLTEGHHHHHH	soluble
MTGAVCPGSFDPVTLGHVDIFERAAAQFDEVVVAILVNPAKTGMFDLDERIAMVKESTTHLPNLRVQVGHGLVVDFVRSCGMTAIVKGLRTGTDFEYELQMAQMNKHIAGVDTFFVATAPRYSFVSSSLAKEVAMLGGDVSELLPEPVNRRLRDRLN	soluble
HHHHHHPEIVDTCSLASPASVCRTKHLHLRCSVDFTRRTLTGTAALTVQSQEDNLRSLVLDTKDLTIEKVVINGQEVKYALGERQSYKGSPMEISLPIALSKNQEIVIEISFETSPKSSALQWLTPEQTSGKEHPYLFSQCQAIHCRAILPCQDTPSVKLTYTAEVSVPKELVALMSAIRDGETPDPEDPSRKIYKFIQKVPIPCYLIALVVGALESRQIGPRTLVWSEKEQVEKSAYEFSETESMLKIAEDLGGPYVWGQYDLLVLPPSFPYGGMENPCLTFVTPTLLAGDKSLSNVIAHEISHSWTGNLVTNKTWDHFWLNEGHTVYLERHICGRLFGEKFRHFNALGGWGELQNSVKTFGETHPFTKLVVDLTDIDPDVAYSSVPYEKGFALLFYLEQLLGGPEIFLGFLKAYVEKFSYKSITTDDWKDFLYSYFKDKVDVLNQVDWNAWLYSPGLPPIKPNYDMTLTNACIALSQRWITAKEDDLNSFNATDLKDLSSHQLNEFLAQTLQRAPLPLGHIKRMQEVYNFNAINNSEIRFRWLRLCIQSKWEDAIPLALKMATEQGRMKFTRPLFKDLAAFDKSHDQAVRTYQEHKASMHPVTAMLVGKDLKVD	soluble
MSLAMALFQSAPHSLCILRLSAIGDVCNTIAAVQAIQRQWPQTRITWVTGKLEAELIQSLPDIQVIVFDKKLGWRAYTQLWQQLKSERFDALLHMQYAFRASIATLGIKARYKLGFDAARSQDFQTWFTNVKVPSPDKMHVLDGLLAFVEHLGIRDIEPKWSLTCQPDDLTWAEAQFQPEQPRLVVVPGASKAYKNWTAEGYAAVIEHAQQQGWQVILAGSPAQVERDLAAQVEQALAHPVLNLVGKSTLQQMLALLAKADLVIAPDTGPAHMANAMHTPIIGLYAHHNPERTGPYHYRHYVVSAYQEALLAETGKMPQQVDWRTRVKDPNAMQRITAQQVIAMFERAAADIMATQVNDEGHHHHHH	soluble
